Data as given in patent US20170355769A1 (AbbVie / Abbott, published 2017).

T1: Human full length B7-H3 (human, UniProt Q5ZPR3 29-534)
T1 sequence: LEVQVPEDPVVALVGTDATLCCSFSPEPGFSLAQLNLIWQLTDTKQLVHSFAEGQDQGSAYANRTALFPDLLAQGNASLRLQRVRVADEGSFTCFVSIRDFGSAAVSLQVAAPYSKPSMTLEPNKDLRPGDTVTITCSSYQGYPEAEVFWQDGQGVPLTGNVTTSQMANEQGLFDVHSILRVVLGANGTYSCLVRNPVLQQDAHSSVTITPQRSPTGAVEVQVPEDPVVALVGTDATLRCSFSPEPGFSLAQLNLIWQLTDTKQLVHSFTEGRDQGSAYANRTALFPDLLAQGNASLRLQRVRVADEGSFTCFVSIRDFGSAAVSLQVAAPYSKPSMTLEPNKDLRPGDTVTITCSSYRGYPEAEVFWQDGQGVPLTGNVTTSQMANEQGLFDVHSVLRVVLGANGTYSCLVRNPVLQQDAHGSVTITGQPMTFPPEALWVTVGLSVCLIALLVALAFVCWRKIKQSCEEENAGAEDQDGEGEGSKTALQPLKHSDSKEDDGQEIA

B1: huAb3v2.6-TX (antibody, human IgG1, kappa, L234A L235A, V domains shown)
VH: EVQLVQSGAEVKKPGSSVKVSCKASGYTFSSYWMHWVRQAPGQGLEWIGLIHPESGSTNYNEMFKNRATLTVDRSTSTAYMELSSLRSEDTAVYYCAGGGRLYFDYWGQGTTVTVSS
VL: DIVMTQSPLSLPVTPGEPASISCRSSQSLVHSNQDTYLRWYLQKPGQSPQLLIYKVSNRFSGVPDRFSGSGSGTDFTLKISRVEAEDVGVYYCSQSTHVPYTFGGGTKVEIKR
modifications: synthon TX on reduced interchain Cys
B2: huAb3v2.6-AAA (antibody, human IgG1, kappa, L234A L235A, V domains shown)
VH: B1 VH
VL: B1 VL
modifications: synthon AAA on reduced interchain Cys
B3: huAb3v2.6-XW (antibody, human IgG1, kappa, L234A L235A, V domains shown)
VH: B1 VH
VL: B1 VL
modifications: synthon XW on reduced interchain Cys
B4: huAb3v2.6-TV (antibody, human IgG1, kappa, L234A L235A, V domains shown)
VH: B1 VH
VL: B1 VL
modifications: synthon TV on reduced interchain Cys
B5: huAb3v2.6-ZZ (antibody, human IgG1, kappa, L234A L235A, V domains shown)
VH: B1 VH
VL: B1 VL
modifications: synthon ZZ on reduced interchain Cys
B6: huAb3v2.6-SR (antibody, human IgG1, kappa, L234A L235A, V domains shown)
VH: B1 VH
VL: B1 VL
modifications: synthon SR on reduced interchain Cys
B7: huAb3v2.6-YY (antibody, human IgG1, kappa, L234A L235A, V domains shown)
VH: B1 VH
VL: B1 VL
modifications: synthon YY on reduced interchain Cys
B8: huAb3v2.6-ZT (antibody, human IgG1, kappa, L234A L235A, V domains shown)
VH: B1 VH
VL: B1 VL
modifications: synthon ZT on reduced interchain Cys
B9: huAb3v2.6-SE (antibody, human IgG1, kappa, L234A L235A, V domains shown)
VH: B1 VH
VL: B1 VL
modifications: synthon SE on reduced interchain Cys
B10: huAb3v2.6-WD (antibody, human IgG1, kappa, L234A L235A, V domains shown)
VH: B1 VH
VL: B1 VL
modifications: synthon WD on reduced interchain Cys
B11: huAb3v2.6-AAD (antibody, human IgG1, kappa, L234A L235A, V domains shown)
VH: B1 VH
VL: B1 VL
modifications: synthon AAD on reduced interchain Cys
B12: huAb3v2.6-LB (antibody, human IgG1, kappa, L234A L235A, V domains shown)
VH: B1 VH
VL: B1 VL
modifications: synthon LB on reduced interchain Cys
B13: huAb13v1-TV (antibody, human IgG1, kappa, L234A L235A, V domains shown)
VH: EVQLQESGPGLVKPSETLSLTCAVTGYSITSGYSWHWIRQFPGNGLEWMGYIHSSGSTNYNPSLKSRISISRDTSKNQFFLKLSSVTAADTAVYYCAGYDDYFEYWGQGTTVTVSS
VL: DIQMTQSPSSLSASVGDRVTITCKASQNVGFNVAWYQQKPGKSPKALIYSASYRYSGVPSRFSGSGSGTDFTLTISSLQPEDFAEYFCQQYNWYPFTFGQGTKLEIKR
modifications: synthon TV on reduced interchain Cys
B14: huAb13v1-AAA (antibody, human IgG1, kappa, L234A L235A, V domains shown)
VH: B13 VH
VL: B13 VL
modifications: synthon AAA on reduced interchain Cys

Each binder was assayed against T1, Human full length B7-H3 (assay: cell-based or functional assay).

Q: B1 was tested. Which “EC50 nM H1650 (tumor cell cytotoxicity)” value did it give?
A: 0.47 nM

Q: How did the “EC50 nM H1650 (tumor cell cytotoxicity)” value turn out when B2 was run?
A: 1.24 nM

Q: B3 was tested. Which “EC50 nM H1650 (tumor cell cytotoxicity)” value did it give?
A: 2.4 nM

Q: With B4 as the binder, how does the “EC50 nM H1650 (tumor cell cytotoxicity)” value read?
A: 0.52 nM

Q: How did the “EC50 nM H1650 (tumor cell cytotoxicity)” value turn out when B5 was run?
A: 1.35 nM

Q: How did the “EC50 nM H1650 (tumor cell cytotoxicity)” value turn out when B6 was run?
A: 0.71 nM

Q: How did the “EC50 nM H1650 (tumor cell cytotoxicity)” value turn out when B7 was run?
A: 0.72 nM

Q: How did the “EC50 nM H1650 (tumor cell cytotoxicity)” value turn out when B8 was run?
A: 1.11 nM

Q: B9 was tested. Which “EC50 nM H1650 (tumor cell cytotoxicity)” value did it give?
A: 1.01 nM

Q: How did the “EC50 nM H1650 (tumor cell cytotoxicity)” value turn out when B10 was run?
A: 0.79 nM

Q: B11 was tested. Which “EC50 nM H1650 (tumor cell cytotoxicity)” value did it give?
A: 0.85 nM

Q: B12 was tested. Which “EC50 nM H1650 (tumor cell cytotoxicity)” value did it give?
A: 2.07 nM

Q: With B13 as the binder, how does the “EC50 nM H1650 (tumor cell cytotoxicity)” value read?
A: 0.43 nM

Q: How did the “EC50 nM H1650 (tumor cell cytotoxicity)” value turn out when B14 was run?
A: 0.37 nM
